Measurements from the supplement of paper PMC7877785.
± gives the uncertainty stated by the source.

Assay: self-splicing fitness, log relative to wild type (ln ratio); higher = more splicing; Tetrahymena group I intron in knt gene, E. coli kanamycin selection, DiMSum; sequences stand for … in CUCUCU…GGAGGGAAAAGUUAUCAGGCAUGCACCUGGUAGCUAGUCUUUAAACCAAUAGAUUGCAUCGGUUUAAAAGGCAAGACCGUCAAAUUGCGGGAAAGGGGUCAACAGCCGUUCAGUACCAAGUCUCAGGGGAAACUUUGAGAUGGCCUUGCAAAGGGUAUGGUAAUAAGCUGACGGACAUGGUCCUAACCACGCAGCCAAGUCCUAAGUCAACAGAUCUUCUGUUGAUAUGGAUGCAGUUCACAGACUAAAUGUCGGUCGGGGAAGAUGUAUUCUUCUCAUAAGAUAUAGUCGGACCUCUCCUUAAUGGGAGCUAGCGGAUGAAGUGAUGCAACACUGGAGCCGCUGGGAACUAAUUUGUAUGCGAAAGUAUAUUGAUUAGUUUUGGAGUACUCGUGGUCG
Outline: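 Six replicate transformations of E. coli BL21(DE3) with a pET-22b(+) library were grown overnight at 37°C or 30°C. The library randomised all eight P1ex-region intron nucleotides, the intron lying in the knt kanamycin-resistance gene, and plates were LB agar with or without 25 μg/mL kanamycin plus 100 μg/mL carbenicillin, 50 μM IPTG and 0.2% rhamnose. Pooled colonies were amplicon-sequenced on an Illumina HiSeq 2500, and fitness is the DiMSum error-weighted combination of wild-type-normalised replicate fold changes, kanamycin versus none.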

| Sequence | self-splicing fitness (ln) (30 °C) | self-splicing fitness (ln) (37 °C) |
| --- | --- | --- |
| ACAAAGCAAUAUUACGAUCC | -1.55 ± 0.071 | 0.389 ± 0.1 |
| ACAAAGCAAUAUUACGCAAU | -1.87 ± 0.078 | -1.6 ± 0.092 |
| ACAAAGCAAUAUUACGCCGA | -2.13 ± 0.15 | -0.465 ± 0.13 |
| ACAAAGCAAUAUUACGCGGG | -2.47 ± 0.09 | -1.01 ± 0.09 |
| ACAAAGCAAUAUUACGCUAC | -3.07 ± 0.28 | -2.43 ± 0.33 |
| ACAAAGCAAUAUUACGCUGC | -3.63 ± 0.25 | -1.26 ± 0.21 |
| ACAAAGCAAUAUUACGCUUU | -3.64 ± 0.24 | -2.16 ± 0.17 |
| ACAAAGCAAUAUUACGGAAC | -3.33 ± 0.13 | -2.43 ± 0.15 |
| ACAAAGCAAUAUUACGGAGC | -3.17 ± 0.13 | -2.62 ± 0.15 |
| ACAAAGCAAUAUUACGGAUA | -2.14 ± 0.2 | -1.68 ± 0.17 |
| ACAAAGCAAUAUUACGGCAC | -1.61 ± 0.079 | -0.954 ± 0.12 |
| ACAAAGCAAUAUUACGGCAG | -1.1 ± 0.064 | -0.658 ± 0.088 |
| ACAAAGCAAUAUUACGGGUA | -1.86 ± 0.09 | -0.94 ± 0.087 |
| ACAAAGCAAUAUUACGGGUC | -3.18 ± 0.14 | -1.76 ± 0.2 |
| ACAAAGCAAUAUUACGGUGC | -2.89 ± 0.12 | -2.32 ± 0.12 |
| ACAAAGCAAUAUUACGUAUU | -1.94 ± 0.086 | -1.18 ± 0.11 |
| ACAAAGCAAUAUUACGUCAA | -3.26 ± 0.25 | -1.66 ± 0.14 |
| ACAAAGCAAUAUUACGUCUC | -4.03 ± 0.18 | -2.09 ± 0.14 |
| ACAAAGCAAUAUUACGUUAG | -2.73 ± 0.11 | -2.69 ± 0.17 |
| ACAAAGCAAUAUUACGUUGG | -2.44 ± 0.068 | -1.57 ± 0.079 |
| ACACAGCAAUAUUACGAAUC | -3.22 ± 0.15 | -2.63 ± 0.21 |
| ACACAGCAAUAUUACGACCA | -0.337 ± 0.085 | 0.147 ± 0.093 |
| ACACAGCAAUAUUACGACGG | -0.479 ± 0.073 | -0.0997 ± 0.11 |
| ACACAGCAAUAUUACGAGCG | -0.734 ± 0.074 | -0.104 ± 0.088 |
| ACACAGCAAUAUUACGAGGU | -2.85 ± 0.13 | -2.04 ± 0.14 |
| ACACAGCAAUAUUACGAUCG | -0.738 ± 0.077 | -0.032 ± 0.1 |

| Sequence | self-splicing fitness (ln) (30 °C) | self-splicing fitness (ln) (37 °C) |
| --- | --- | --- |
| ACACAGCAAUAUUACGAUGG | -1.53 ± 0.064 | -0.66 ± 0.082 |
| ACACAGCAAUAUUACGCAAG | -1.7 ± 0.1 | -0.825 ± 0.11 |
| ACACAGCAAUAUUACGCAGC | -3.73 ± 0.19 | -2.47 ± 0.17 |
| ACACAGCAAUAUUACGCGAU | -3.11 ± 0.11 | -2.02 ± 0.11 |
| ACACAGCAAUAUUACGCGCC | -0.614 ± 0.11 | -1.13 ± 0.1 |
| ACACAGCAAUAUUACGCUAC | -3.73 ± 0.35 | -2.63 ± 0.26 |
| ACACAGCAAUAUUACGCUAU | -2.81 ± 0.082 | -1.53 ± 0.079 |
| ACACAGCAAUAUUACGGAAU | -2.58 ± 0.084 | -2.31 ± 0.15 |
| ACACAGCAAUAUUACGGACU | -0.884 ± 0.054 | 0.0735 ± 0.063 |
| ACACAGCAAUAUUACGGAGA | -4.21 ± 0.21 | -2.23 ± 0.14 |
| ACACAGCAAUAUUACGGCGC | -0.533 ± 0.067 | 0.309 ± 0.079 |
| ACACAGCAAUAUUACGGGGA | -2.3 ± 0.077 | -0.729 ± 0.067 |
| ACACAGCAAUAUUACGGUGG | -2.44 ± 0.08 | -1.67 ± 0.099 |
| ACACAGCAAUAUUACGUCCA | -1.09 ± 0.089 | -0.474 ± 0.096 |
| ACACAGCAAUAUUACGUCUU | -1.17 ± 0.046 | 0.012 ± 0.058 |
| ACACAGCAAUAUUACGUGGA | -2.25 ± 0.096 | -1.18 ± 0.066 |
| ACAGAGCAAUAUUACGAAAU | -2.57 ± 0.45 | -1.01 ± 0.29 |
| ACAGAGCAAUAUUACGAAGU | -2.65 ± 0.14 | -2.58 ± 0.29 |
| ACAGAGCAAUAUUACGAGGA | -3.04 ± 0.21 | -2.49 ± 0.23 |
| ACAGAGCAAUAUUACGAUGG | -3.24 ± 0.14 | -3.32 ± 0.23 |
| ACAGAGCAAUAUUACGCACA |  | -1.39 ± 0.36 |
| ACAGAGCAAUAUUACGCACG | -3.11 ± 0.22 | -3.43 ± 0.25 |
| ACAGAGCAAUAUUACGCCAC | -2.45 ± 0.38 | -1.33 ± 0.43 |
| ACAGAGCAAUAUUACGCCAU | -3.46 ± 0.42 | -1.97 ± 0.23 |
| ACAGAGCAAUAUUACGCGAG | -2.31 ± 0.14 | -2.43 ± 0.16 |
| ACAGAGCAAUAUUACGCGGA | -3.57 ± 0.29 | -2.62 ± 0.19 |

| Sequence | self-splicing fitness (ln) (30 °C) | self-splicing fitness (ln) (37 °C) |
| --- | --- | --- |
| ACAGAGCAAUAUUACGCGGC | -3.41 ± 0.3 | -2.18 ± 0.37 |
| ACAGAGCAAUAUUACGCGGU | -4.3 ± 0.41 | -2.43 ± 0.28 |
| ACAGAGCAAUAUUACGCUAC | -3.21 ± 0.43 |  |
| ACAGAGCAAUAUUACGCUCG | -1.05 ± 0.13 | -1.12 ± 0.2 |
| ACAGAGCAAUAUUACGCUGA | -3.27 ± 0.19 | -1.47 ± 0.16 |
| ACAGAGCAAUAUUACGGAAC |  | -1.97 ± 0.36 |
| ACAGAGCAAUAUUACGGGCC | -1.79 ± 0.29 |  |
| ACAGAGCAAUAUUACGGGGG | -3.7 ± 0.19 | -2.31 ± 0.2 |
| ACAGAGCAAUAUUACGGGUA | -2.47 ± 0.36 | -3 ± 0.31 |
| ACAGAGCAAUAUUACGGUAG | -2.61 ± 0.13 | -2.49 ± 0.18 |
| ACAGAGCAAUAUUACGGUUC | -3.68 ± 0.23 | -2.16 ± 0.22 |
| ACAGAGCAAUAUUACGGUUG | -3.68 ± 0.24 | -3.02 ± 0.22 |
| ACAGAGCAAUAUUACGUGGC | -3.8 ± 0.25 | -2.31 ± 0.32 |
| ACAGAGCAAUAUUACGUUCA | -2.1 ± 0.14 | -2.33 ± 0.2 |
| ACAGAGCAAUAUUACGUUGA | -2.69 ± 0.21 | -3.28 ± 0.27 |
| ACAUAGCAAUAUUACGAACA | 0.105 ± 0.14 | -1.05 ± 0.17 |
| ACAUAGCAAUAUUACGAGAU | -4.08 ± 0.29 | -2.66 ± 0.26 |
| ACAUAGCAAUAUUACGAGUC | -3.91 ± 0.27 | -3.33 ± 0.25 |
| ACAUAGCAAUAUUACGAUUA | -0.756 ± 0.1 | -0.602 ± 0.14 |
| ACAUAGCAAUAUUACGCAAU | -3.57 ± 0.21 | -2.67 ± 0.24 |
| ACAUAGCAAUAUUACGCCAG | -2.65 ± 0.18 | -1.5 ± 0.21 |
| ACAUAGCAAUAUUACGCCCC | -1.98 ± 0.39 | -0.782 ± 0.41 |
| ACAUAGCAAUAUUACGGAGC |  | -0.767 ± 0.15 |
| ACAUAGCAAUAUUACGGAUC | -3.05 ± 0.15 | -1.21 ± 0.12 |
| ACAUAGCAAUAUUACGGAUG | -1.77 ± 0.12 | -1.6 ± 0.14 |
